Data as given in article PMC548358.
Substitutions are numbered along the chain they refer to.

T1: Trx-mMUTYH(D207N) (Mus musculus, UniProt Q99P21 1-515, D207N)
T1 sequence: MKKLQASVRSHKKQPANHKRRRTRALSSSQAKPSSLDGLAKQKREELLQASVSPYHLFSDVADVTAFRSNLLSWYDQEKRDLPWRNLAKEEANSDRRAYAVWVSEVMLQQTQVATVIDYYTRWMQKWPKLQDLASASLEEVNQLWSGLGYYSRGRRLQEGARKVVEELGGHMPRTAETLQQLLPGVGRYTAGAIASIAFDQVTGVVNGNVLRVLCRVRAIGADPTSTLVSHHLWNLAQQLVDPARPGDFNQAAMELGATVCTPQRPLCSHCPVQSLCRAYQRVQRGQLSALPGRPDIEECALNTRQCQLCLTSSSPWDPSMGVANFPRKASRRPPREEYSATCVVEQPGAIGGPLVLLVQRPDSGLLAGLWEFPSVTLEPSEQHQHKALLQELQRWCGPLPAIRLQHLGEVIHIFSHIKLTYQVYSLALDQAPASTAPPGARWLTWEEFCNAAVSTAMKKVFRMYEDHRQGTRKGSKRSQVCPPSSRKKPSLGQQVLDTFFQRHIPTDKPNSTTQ

T2: Trx-mMUTYH wild type (Mus musculus, UniProt Q99P21 1-515)
T2 sequence: T1 sequence with N207D

B1: *A:GO (dsDNA)
DNA 1: AGCGGCCATCGATACCGTCAACCTCGAGGAATTCC
DNA 2: GGAATTCCTCGAGGTGGACGGTATCGATGGCCGCT
modifications: 8-oxoguanine at strand 2 position 16, opposite A20 of strand 1
B2: *AO:G (dsDNA)
DNA 1: B1 DNA 1
DNA 2: B1 DNA 2
modifications: 2-hydroxyadenine at strand 1 position 20, opposite G16 of strand 2
B3: *AO:T (dsDNA)
DNA 1: B1 DNA 1
DNA 2: B1 DNA 2 with G16T
modifications: 2-hydroxyadenine at strand 1 position 20, opposite T16 of strand 2
B4: *A:G (dsDNA)
DNA 1: B1 DNA 1
DNA 2: B1 DNA 2
B5: *AO:GO (dsDNA)
DNA 1: B1 DNA 1
DNA 2: B1 DNA 2
modifications: 2-hydroxyadenine at strand 1 position 20; 8-oxoguanine at strand 2 position 16

These binders were tested against T1, Trx-mMUTYH(D207N) (assay: EMSA).

Binder | binding result
B1 | binds
B2 | no binding
B3 | no binding
B4 | no binding

Each binder was assayed against T2, Trx-mMUTYH wild type (assay: EMSA).

Binder | binding result
B1 | binds
B2 | no binding
B5 | binds
B3 | no binding
B4 | no binding
